# Earlier results, collected in patent US20060193824A1, “Methods for the treatment of infectious and inflammatory airway diseases” (priority 2005, published 2006).
# B1: IL-4: cytokine obtainable from R & D Systems (protein, UniProt P05112 25-153, looked up)
# Interleukin-4: HKCDITLQEIIKTLNSLTEQKTLCTELTVTDIFAASKNTTEKETFCRAATVLRQFYSHHEKDTRCLGATAQQFHRHKQLIRFLKRLDRNLWGLAGLNSCPVKEANQSTLENFLERLKTIMREKYSKCSS
# B2: Human neutrophil elastase: Human neutrophil elastase (protein, UniProt P08246 30-267, looked up)
# Neutrophil elastase: IVGGRRARPHAWPFMVSLQLRGGHFCGATLIAPNFVMSAAHCVANVNVRAVRVVLGAHNLSRREPTRQVFAVQRIFENGYDPVNLLNDIVILQLNGSATINANVQVAQLPAQGRRLGNGVQCLAMGWGLLGRNRGIASVLQELNVTVVTSLCRRSNVCTLVRGRQAGVCFGDSGSPLVCNGLIHGIASFVRGGCASGLYPDAFAPVAQFVNWIDSIIQRSEDNPCPHPRDPDPASRTH
# B3: IL-10: cytokine obtainable from R & D systems (protein, UniProt P22301 19-178, looked up)
# Interleukin-10: SPGQGTQSENSCTHFPGNLPNMLRDLRDAFSRVKTFFQMKDQLDNLLLKESLLEDFKGYLGCQALSEMIQFYLEEVMPQAENQDPDIKAHVNSLGENLKTLRLRLRRCHRFLPCENKSKAVEQVKNAFNKLQEKGIYKAMSEFDIFINYIEAYMTMKIRN
# Legend:
# [1] = tested on: mucus production
# [2] = tested on: respiratory epithelial cells
# [3] = tested on: inflammation
molecule,measurement,setting,value
B1,mucus production,[1],modulates mucus production
B2,MUC5AC levels,[2],increase MUC5AC levels
B3,inflammation,[3],attenuates excessive inflammation
